Positions count from the first letter of the chain named.
T1: human PD-L2 antigen (Homo sapiens, UniProt Q9BQ51)
T1 sequence (Q9BQ51 20-273): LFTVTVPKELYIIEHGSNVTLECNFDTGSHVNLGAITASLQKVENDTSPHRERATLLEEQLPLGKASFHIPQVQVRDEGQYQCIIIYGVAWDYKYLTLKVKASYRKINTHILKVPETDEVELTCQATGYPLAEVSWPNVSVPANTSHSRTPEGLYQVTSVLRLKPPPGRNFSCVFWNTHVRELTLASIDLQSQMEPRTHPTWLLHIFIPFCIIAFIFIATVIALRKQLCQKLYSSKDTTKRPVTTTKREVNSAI

B1: VH1/VK1: humanized anti-PD-L2 variant; SEQ ID NO: 2/SEQ ID NO: 10 (antibody, V domains shown)
VH: QVQLVQSGAELKKPGSSVKVSCKASGYAFSNYFIEWVKQPPGKGLEWIGLNIPGSGGSNYAEKFKGRATITADKSTSTAYMELSSLTSEDSAVYFCARRRLPPDWYFDVWGQGTTVTVSS
VL: DVVMTQSPLSLPVTLGQPASISCRSSQSLVHSDGNTYLHWYQQKPGQPPKLLIYKVSNRFSGVPDRFSGSGSGTDFTLKISRVEAEDVGVYFCSQSTHVPWTFGGGTKVEIK
B2: VH1/VK2: humanized anti-PD-L2 variant; SEQ ID NO: 2/SEQ ID NO: 11 (antibody, V domains shown)
VH: B1 VH
VL: B1 VL with F92Y
B3: VH1/VK3: humanized anti-PD-L2 variant; SEQ ID NO: 2/SEQ ID NO: 12 (antibody, V domains shown)
VH: B1 VH
VL: B1 VL with D33G
B4: VH2/VK1: humanized anti-PD-L2 variant; SEQ ID NO: 3/SEQ ID NO: 10 (antibody, V domains shown)
VH: B1 VH with L11V, T87R
VL: B1 VL
B5: VH2/VK2: humanized anti-PD-L2 variant; SEQ ID NO: 3/SEQ ID NO: 11 (antibody, V domains shown)
VH: B1 VH with L11V, T87R
VL: B1 VL with F92Y
B6: VH2/VK3: humanized anti-PD-L2 variant; SEQ ID NO: 3/SEQ ID NO: 12 (antibody, V domains shown)
VH: B1 VH with L11V, T87R
VL: B1 VL with D33G
B7: VH3/VK1: humanized anti-PD-L2 variant; SEQ ID NO: 4/SEQ ID NO: 10 (antibody, V domains shown)
VH: B1 VH with L11V, A68V, T87R
VL: B1 VL
B8: VH3/VK2: humanized anti-PD-L2 variant; SEQ ID NO: 4/SEQ ID NO: 11 (antibody, V domains shown)
VH: B1 VH with L11V, A68V, T87R
VL: B1 VL with F92Y
B9: VH3/VK3: humanized anti-PD-L2 variant; SEQ ID NO: 4/SEQ ID NO: 12 (antibody, V domains shown)
VH: B1 VH with L11V, A68V, T87R
VL: B1 VL with D33G
B10: VH4/VK1: humanized anti-PD-L2 variant; SEQ ID NO: 5/SEQ ID NO: 10 (antibody, V domains shown)
VH: B1 VH with L11V, A68V, T87R, S91T, F95Y
VL: B1 VL
B11: VH4/VK2: humanized anti-PD-L2 variant; SEQ ID NO: 5/SEQ ID NO: 11 (antibody, V domains shown)
VH: B1 VH with L11V, A68V, T87R, S91T, F95Y
VL: B1 VL with F92Y
B12: VH4/VK3: humanized anti-PD-L2 variant; SEQ ID NO: 5/SEQ ID NO: 12 (antibody, V domains shown)
VH: B1 VH with L11V, A68V, T87R, S91T, F95Y
VL: B1 VL with D33G
B13: VH6/VK1: humanized anti-PD-L2 variant; SEQ ID NO: 6/SEQ ID NO: 10 (antibody, V domains shown)
VH: B1 VH with L11V, A28S, A68V, T87R, S91T, F95Y
VL: B1 VL
B14: VH6/VK2: humanized anti-PD-L2 variant; SEQ ID NO: 6/SEQ ID NO: 11 (antibody, V domains shown)
VH: B1 VH with L11V, A28S, A68V, T87R, S91T, F95Y
VL: B1 VL with F92Y
B15: VH6/VK3: humanized anti-PD-L2 variant; SEQ ID NO: 6/SEQ ID NO: 12 (antibody, V domains shown)
VH: B1 VH with L11V, A28S, A68V, T87R, S91T, F95Y
VL: B1 VL with D33G
B16: VH7/VK1: humanized anti-PD-L2 variant; SEQ ID NO: 7/SEQ ID NO: 10 (antibody, V domains shown)
VH: B1 VH with T87R, S91T, F95Y
VL: B1 VL
B17: VH7/VK2: humanized anti-PD-L2 variant; SEQ ID NO: 7/SEQ ID NO: 11 (antibody, V domains shown)
VH: B1 VH with T87R, S91T, F95Y
VL: B1 VL with F92Y
B18: VH7/VK3: humanized anti-PD-L2 variant; SEQ ID NO: 7/SEQ ID NO: 12 (antibody, V domains shown)
VH: B1 VH with T87R, S91T, F95Y
VL: B1 VL with D33G
B19: VH8/VK1: humanized anti-PD-L2 variant; SEQ ID NO: 8/SEQ ID NO: 10 (antibody, V domains shown)
VH: B1 VH with L11V, T87R, S91T, F95Y
VL: B1 VL
B20: VH8/VK2: humanized anti-PD-L2 variant; SEQ ID NO: 8/SEQ ID NO: 11 (antibody, V domains shown)
VH: B1 VH with L11V, T87R, S91T, F95Y
VL: B1 VL with F92Y
B21: VH0/VK0: chimeric anti-PD-L2 antibody, mouse Fab on human IgG1 backbone; SEQ ID NO: 1/SEQ ID NO: 9 (antibody, V domains shown)
VH: QVQLQQSGAELVRPGTSVKVSCKASGYAFSNYFIEWVKQRPGQGLEWIGLNIPGSGGSNYAEKFKGKATLTADKSSSTAYMQLSSLTSEDSAVYFCARRRLPPDWYFDVWGTGTTVTVSS
VL: B1 VL with S7T, T14S, Q17D, P18Q, Q42L, P48S, V88L, V109L
modifications: human IgG1 constant regions
B22: VH8/VK3: humanized anti-PD-L2 variant; SEQ ID NO: 8/SEQ ID NO: 12 (antibody, V domains shown)
VH: B1 VH with L11V, T87R, S91T, F95Y
VL: B1 VL with D33G
B23: VH0/VK1: anti-PD-L2 variant on hIgG1; SEQ ID NO: 1/SEQ ID NO: 10 (antibody, V domains shown)
VH: B21 VH
VL: B1 VL
modifications: human IgG1 constant regions
B24: VH1/VK0: anti-PD-L2 variant on hIgG1; SEQ ID NO: 2/SEQ ID NO: 9 (antibody, V domains shown)
VH: B1 VH
VL: B1 VL with S7T, T14S, Q17D, P18Q, Q42L, P48S, V88L, V109L
modifications: human IgG1 constant regions

Assays:
[1] = molecular target: T1, human PD-L2 antigen; assay: Single cycle kinetics on Biacore 8K, binding to human PD-L2 antigen; settings: Table 2, cell culture supernatants
Source text: Table 2: Single cycle kinetic parameters of chimeric (VH0/VK0) and humanized variants (tested as cell culture supernatants) binding to human PD-L2 antigen as determined using the Biacore 8K. As used herein, the term “KD” is intended to refer to the dissociation equilibrium constant of a particular antibody-antigen interaction, ka is the binding rate constant and kd is the dissociation rate constant. The binding affinity of antibodies of the disclosed invention may be measured or determined by standard antibody-antigen assays. The relative KD was calculated by dividing the KD of the humanized variant by that of the VH0/VK0 assayed in the same experiment.

[2] = molecular target: T1, human PD-L2 antigen; assay: as above; settings: Table 3; preferred embodiments by Biacore

Molecule | kd [1] [s⁻¹] | kd [2] [s⁻¹]
B1 | 0.00011 | 
B2 | 0.000116 | 
B3 | 0.000365 | 
B4 | 0.000119 | 
B5 | 0.000122 | 
B6 | 0.000414 | 
B7 | 0.000128 | 
B8 | 0.000132 | 
B9 | 0.000497 | 
B10 | 0.000125 | 
B11 | 0.000129 | 0.000129
B12 | 0.000466 | 
B13 | 0.000121 | 0.000121
B14 | 0.000128 | 0.000128
B15 | 0.000444 | 0.000444
B16 | 0.000113 | 
B17 | 0.000118 | 0.000118
B18 | 0.000344 | 
B19 | 0.00012 | 
B20 | 0.000121 | 0.000121
B21 | 9.72e-05 | 9.72e-05
B22 | 0.000388 | 
B23 | 9.88e-05 | 
B24 | 0.000109 | 
